Positions count from the first letter of the chain named. In names and notes the source's numbering stands.
T1: thermolysin (Bacillus thermoproteolyticus, UniProt P00800)
T1 construct: purchased Sigma
T1 sequence (P00800 233-548): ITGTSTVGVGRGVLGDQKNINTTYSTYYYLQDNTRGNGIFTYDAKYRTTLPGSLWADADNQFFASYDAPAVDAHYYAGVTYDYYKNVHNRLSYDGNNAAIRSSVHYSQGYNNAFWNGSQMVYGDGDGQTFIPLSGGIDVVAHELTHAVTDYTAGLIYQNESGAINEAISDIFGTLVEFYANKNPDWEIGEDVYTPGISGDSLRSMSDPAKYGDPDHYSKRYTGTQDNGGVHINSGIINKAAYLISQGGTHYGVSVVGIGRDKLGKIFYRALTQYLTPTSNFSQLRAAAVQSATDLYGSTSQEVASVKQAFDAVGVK

B1: Q128I: single-substitution thermolysin variant (SEQ ID NO:3 numbering) (protein, listed as Geobacillus caldoproteolyticus)
chain: T1 sequence (P00800 233-548) with Q128I
B2: T049N: single-substitution thermolysin variant (SEQ ID NO:3 numbering) (protein, listed as Geobacillus caldoproteolyticus)
chain: T1 sequence (P00800 233-548) with T49N
B3: Q128V: single-substitution thermolysin variant (SEQ ID NO:3 numbering) (protein, listed as Geobacillus caldoproteolyticus)
chain: T1 sequence (P00800 233-548) with Q128V
B4: Q128Y: single-substitution thermolysin variant (SEQ ID NO:3 numbering) (protein, listed as Geobacillus caldoproteolyticus)
chain: T1 sequence (P00800 233-548) with Q128Y
B5: Y151N: single-substitution thermolysin variant (SEQ ID NO:3 numbering) (protein, listed as Geobacillus caldoproteolyticus)
chain: T1 sequence (P00800 233-548) with Y151N
B6: Y151T: single-substitution thermolysin variant (SEQ ID NO:3 numbering) (protein, listed as Geobacillus caldoproteolyticus)
chain: T1 sequence (P00800 233-548) with Y151T
B7: Q128M: single-substitution thermolysin variant (SEQ ID NO:3 numbering) (protein, listed as Geobacillus caldoproteolyticus)
chain: T1 sequence (P00800 233-548) with Q128M
B8: T049Q: single-substitution thermolysin variant (SEQ ID NO:3 numbering) (protein, listed as Geobacillus caldoproteolyticus)
chain: T1 sequence (P00800 233-548) with T49Q

tested on: not listed separately; assay: Stability assay in 25% TIDE 2X detergent with DTPA (residual Abz-AGLA-Nba protease activity); assay type: physicochemical; conditions: 60 min at 32°C; variant residual AGLA activity divided by wild-type residual activity
In short: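 Thermolysin variant culture supernatants stressed in TIDE 2× detergent, with or without DTPA: 60 min at 32° C or 180 min at 50° C. Residual versus unstressed activity on Abz-AGLA-Nba read kinetically at 25° C (Ex 350/Em 420). Performance index is variant residual activity divided by wild-type thermolysin residual activity.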

Molecule	PI (relative stability), 25% TIDE 2X with DTPA
B1	1.32
B2	1.03
B3	1.45
B4	1.09
B5	1.25
B6	1.18
B7	1.06

tested on: not given; assay: not given; conditions: TIDE 2X 0.78 g/l, 6 gpg, pH 8.2, 30 min at 20°C, A405; variant vs wild-type thermolysin at same protein concentration
Description: Thermolysin containing protease samples were obtained from filtered broth of cultures grown in microtiter plates for 3 days at 37° C. with shaking at 280 rpm under humidified aeration.
• Thermolysin containing culture supernatants (˜100-200 μg protein per ml) • TIDE® 2× (nil enzymes) detergent (P&G) • Dilution Buffer (10 mM NaCl, 0.1 mM CaCl2, 0.005% TWEEN®-80) The equipment used was a Biomek FX Robot (Beckman Coulter), a SpectraMAX MTP Reader (type 340; Molecular Devices), and an iEMS incubator/shaker (Thermo/Labsystems). MTPs were obtained from Costar (type 9017). TIDE® 2× Liquid Detergent Preparation (US Conditions):
Milli-Q water was adjusted to 6 gpg water hardness using a (Ca/Mg 3:1) hardness stock solution (282.3 g/L CaCl2.2H20, 130.1 g/L MgCl2.6H2O), 0.78 g/1 detergent TIDE® 2× was added, and the detergent solution was stirred vigorously for at least 15 minutes. Then, 5 mM HEPES was added and the pH adjusted to 8.2.
Microswatches of ¼ inch circular diameter were obtained from CFT (Vlaardingen, The Netherlands).
Two microswatches were placed vertically into each well of a 96-well microtiter plate to expose the whole surface area (i.e., not flat on the bottom of the well).
The incubator was set to 20° C. The filtered culture broth samples were tested at an appropriate concentration by dilution with a mixture of 10 mM NaCl, 0.1 mM CaCl2, 0.005% TWEEN®-80 solution. The detergent solution was prepared as described above. Then, 190 μl of detergent solution were added to each well of the MTP, containing microswatches. To this mixture, 10 μl of diluted enzyme solution were added to each well (to provide a total volume of 200 μl/well). The MTP was covered with a plate seal and placed in an incubator for 30 minutes at 20° C., with agitation at 1400 rpm (iEMS incubator). Following incubation under the appropriate conditions, 100 μl of solution from each well was removed and placed into a new MTP. Subsequently this MTP, containing 100 μl of solution/well, was read at 405 nm in a MTP-Reader. Blank controls, containing 2 microswatches/well and detergent, without the addition of thermolysin containing samples, were also included in the test.
The observed absorbance value was corrected for the blank value (obtained after incubation of microswatches in the absence of added enzyme). The resulting absorbance was a measure for the hydrolytic activity. For each sample (thermolysin or a variant) the performance index (PI) was calculated. The performance index is a comparison of the performance of the variant (actual value) and the standard thermolysin enzyme (theoretical value) at the same protein concentration. In addition, the theoretical values were calculated, using the parameters of the Langmuir equation of the standard enzyme.
C. Stability Assay in the Presence of Detergent
In this example, experiments were conducted to determine the stain removal performance of various singly substituted thermolysin (also referred to herein as Proteinase-T or PrT) variants. As described in Example 1, the stain cleaning performance of thermolysin variants was done utilizing a blood/milk/ink (BMI) microswatch assay. Briefly the cleaning performance of chosen single-substitution thermolysin variants was assessed in a TIDE® 2× microswatch assay.

Molecule	PI (performance index), stain removal
B1	1.34
B2	1.10
B8	1.30
B3	1.07
B4	1.13
B5	1.19
B6	1.13
B7	1.10

tested on: not listed separately; assay: Stability assay in 25% TIDE 2X detergent without DTPA (residual Abz-AGLA-Nba protease activity); assay type: physicochemical; conditions: 180 min at 50°C; variant residual AGLA activity divided by wild-type residual activity
Description: The stability of thermolysin and variants thereof was measured after incubation under defined conditions in the presence of 25% TIDE® 2× detergent. The initial and residual activity was determined.
MTPs were obtained from Costar (type 9017) and from Greiner (black plate, type 655076). Test Method Unstressed Conditions:
First, 20 μl thermolysin containing culture supernatant was diluted with 180 μl MES assay buffer. Then, 20 μl diluted supernatant was diluted further with 180 μl MES assay buffer. Subsequently 10 μl of this dilution was transferred into 190 μl AGLA-substrate solution in a pre-warmed plate (Greiner 655076) at 25° C. Any air bubbles present were blown away and the plate was measured according to the AGLA protease assay protocol described below.
First, 20 μl of culture supernatant was diluted with 180 μl 27.5% TIDE®+detergent solution and placed in the iEMS shaker. The plate covered with a plate seal was incubated for a total of 60 minutes at 32° C. at 900 rpm. In addition, 20 μl of culture supernatant was diluted with 180 μl 27.5% TIDE®−solution and placed in the iEMS shaker. This plate covered with a plate seal was incubated for a total of 180 minutes at 50° C. at 900 rpm.
Subsequently after the respective incubations, 20 μl of either of these solutions were diluted with 180 μl MES assay buffer and 10 μl of this dilution were diluted with 190 μl AGLA-substrate solution in a pre-warmed plate (Greiner 655076) at 25° C.
Fluorescence measurements were taken at excitation of 350 nm and emission of 420 nm. The spectrofluorometer software calculated the reaction rates (=slope) of the increase in fluorescence for each well to a linearly regressed line of (milli-) RFU/min. The ratio of the residual and initial AGLA activity was used to express the 25% TIDE® 2× stability as follows: Percentage of residual activity=[slope of stressed]*100/[slope of unstressed]
For each sample (thermolysin and variants thereof) the performance index was calculated by dividing the residual activity of the variant by the residual activity of thermolysin. The performance index compared the stability of the variant and the standard thermolysin enzyme (e.g., wild type or parental enzyme), determined under the same conditions.
In these experiments, the liberation of Abz-AG by protease cleavage of Abz-AGLA-Nba was monitored by fluorescence spectrometry (Ex. 350/Em. 420). The rate of appearance of Abz-AG was a measure of proteolytic activity.
The Abz-AGLA-Nba assay solution was prepared by adding 1 ml of the Abz-AGLA-Nba stock to 19 ml MES substrate buffer and mixed well for at least 2 minutes. Subsequently the thermolysin or variants thereof containing culture supernatants were diluted with MES assay buffer to a concentration of 1-6 μg protein per ml.
The assay was performed by adding 10 μl of diluted protease solution to each well, followed by the addition of 190 μl Abz-AGLA-Nba assay solution that was pre-equilibrated for at least 15 minutes at 25° C. The solutions were vigorously mixed, and the liberation of Abz-AG by protease cleavage of Abz-AGLA-Nba was monitored by fluorescence spectrometry at 25° C. in kinetic mode with excitation set at 350 nm and emission set at 420 nm. The rate of appearance of Abz-AG was a measure of proteolytic activity in the samples. The protease activity was expressed as RFU (relative fluorescence units·min^−1).
As described in Example 1, the stability of thermolysin variants was measured by determining the AGLA activity before and after incubation in the presence of TIDE® 2× heavy duty liquid (HDL) detergent at an elevated temperature. The tables contain the relative stability values compared to wild-type thermolysin, which is the quotient of the variant residual activity divided by the wild-type residual activity. A value greater than one indicates higher stability in the presence of detergent. […]

Molecule	PI (relative stability), 25% TIDE 2X without DTPA
B1	1.19
B2	1.07
B8	1.07
B3	1.20
B4	1.05
B5	1.05
B6	1.10
B7	1.09

biological target: T1, thermolysin; assay: Stabilisation of thermolysin in Unilever ALL Small and Mighty detergent by metalloproteinase inhibitors (SDS-PAGE); conditions: 500 μM inhibitor, thermolysin 800 μg/ml in Unilever ALL Small and Mighty, FIG. 8
Description: Zinc Chloride, Phosphoramidon, Galardin are known metalloproteinase inhibitors. They were purchased from Sigma and dissolved in water or DMSO. Different concentrations of the inhibitors were premixed with thermolysin (also referred to as Proteinase-T or PrT) for 10 min at room temperature. Then the inhibitors were added into Unilever detergent ALL Small and Mighty so that the final concentration of thermolysin was 800 μg/ml in a total volume of 1 ml. At different time points, samples were taken and precipitated with TCA. Briefly, 10 μl sample of detergent with enzyme was added into 500 μl of 0.2 N HCl on ice, and then 500 μl of 20% TCA was added. The tubes were mixed and incubated on ice for 20 min. The pellet was collected and washed with 90% ice-cold acetone. The pellet was dissolved in sample loading buffer (Invitrogen) for SDS-PAGE analysis.

Molecule	stabilisation of thermolysin in detergent
CC(C)C[C@H](NP(=O)(O)O[C@@H]1O[C@@H](C)[C@H](O)[C@@H](O)[C@H]1O)C(=O)N[C@@H](Cc1c[nH]c2ccccc12)C(=O)O [Phosphoramidon]	significantly stabilize thermolysin in detergent

same assay, conditions: 1 mM inhibitor, thermolysin 800 μg/ml in Unilever ALL Small and Mighty, FIG. 8

Molecule	stabilisation of thermolysin in detergent
CNC(=O)[C@H](Cc1c[nH]c2ccccc12)NC(=O)[C@@H](CC(=O)NO)CC(C)C [Galardin]	significantly stabilize thermolysin in detergent
